Data taken from US20230310596A1, “DRUG FOR TREATING TUMOR” (priority 2020, published 2023).
Read-outs that look alike come from different tables or passages of the source.

Test system: MSI-H or dMMR endometrial cancer
Format: in vivo, human
Method: Endometrial cancer subjects meeting inclusion criteria were first tested for MMR/MSI status by immunohistochemical or PCR methods, and then grouped according to the MSI-H/dMMR test results; for non-MSI-H/non-dMMR subjects, an anti-PD-L1 antibody and anlotinib hydrochloride (cohort I) were administered, while for MSI-H or dMMR subjects, an anti-PD-L1 antibody (cohort II) was administered, and for patients with disease under control (CR + PR + SD) and tolerable adverse reactions, the administration could be continued until clinical benefits were lost, until the toxicity was intolerable, until PD/iCPD was given by efficacy evaluation, or until the investigator deemed further medication inappropriate. Efficacy evaluations were performed every 6 weeks (42 days) ± 3 days, starting on day 1 of treatment cycle 1, and the efficacy evaluations were performed once every 12 weeks (84 days) ± 3 days after 54 weeks, until the subjects developed disease progression confirmed by oncologic imaging. 1) Histologically or cytologically confirmed unresectable recurrent or metastatic advanced endometrial cancer (previously received 1-2 lines of systemic standard chemotherapy and failed or was intolerant; preliminary neoadjuvant or adjuvant chemotherapy was allowed). 2) It was confirmed that there was at least one measurable lesion according to the Response Evaluation Criteria in Solid Tumors (RECIST 1.1). 3) Age: ≥18 years; ECOG PS scoring: 0-1; an expected survival time of more than 3 months. Anti-PD-L1 antibody injection hu5G11-hIgG1: 1200 mg of the anti-PD-L1 antibody injection (strength: 600 mg/20 mL) was diluted to 250 mL with normal saline, and the infusion time was 60 ± 10 min (from the beginning of the infusion of the anti-PD-L1 antibody injection until the end of the infusion of the anti-PD-L1 antibody injection and the completion of flushing the tube with normal saline (20 mL recommended)). The anti-PD-L1 antibody injection was administered on the first day, and once every 21 days, that is, 21 days were counted as a treatment cycle (d1/q3w). Safety evaluation criteria: the severity of adverse events was determined using the NCI-CTC AE 5.0 criteria. Effectiveness evaluation criteria: disease status was determined using RECIST 1.1, iRECIST criteria. RECIST 1.1 criteria were used as the primary criteria, and iRECIST criteria were used to confirm efficacy. That is, subjects determined to be disease progression (PD) according to RECIST 1.1 criteria were further confirmed according to iRECIST criteria to determine whether to take further medication observation. Primary endpoint: objective response rate (ORR) for IRC evaluation Secondary endpoint: (1) objective response rate (ORR), disease control rate (DCR), duration of response (DOR), progression-free survival (PFS), overall survival (OS), DOR rate (≥ 6 months), and the like evaluated by investigators; (2) the incidence and severity of adverse events (AEs) and serious adverse events (SAEs), and abnormal laboratory test indicators.

[1] = cohort II, after at least 2 cycles of treatment
[2] = cohort II, after at least 2 cycles of treatment, listed as anti-PD-L1 antibody

B1: Cohort II: anti-PD-L1 humanized monoclonal antibody hu5G11-hIgG1, prepared as described in WO2016022630, given as injection (antibody, V domains shown)
VH: QITLKESGPTLVKPTQTLTLTCTVSGFSLSTYGVHWIRQPPGKALEWLGVIWRGVTTDYNAAFMSRLTITKDNSKNQVVLTMNNMDPVDTATYYCARLGFYAMDYWGQGTLVTVSS
VL: DIQMTQSPSSLSASVGDRVTITCKASQSVSNDVAWYQQKPGKAPKLLIYYAANRYTGVPDRFSGSGYGTDFTFTISSLQPEDIATYFCQQDYTSPYTFGQGTKLEIK
modifications: hIgG1 constant regions; VH of hu5G11-hIgG1 and hu5G11-hIgG4; VL of hu5G11-hIgG1 and hu5G11-hIgG4
With B1 the “best response CR, number of subjects” value (cohort II, MSI-H or dMMR subjects, after at least 2 cycles of treatment, RECIST 1.1/iRECIST, antibody 1200 mg d1/q3w) was 0/6, the “DCR, number of subjects” value [1] was 3/6 and the “ORR, number of subjects” value [1] was “⅙”. For the same molecule, the “best response CR, ratio” value [1] was “(0.00%)”, the “best response PD, ratio” value [1] was “(50.00%)” and the “best response PR (partial response), number of subjects” value [1] was “⅙”. The “best response PR, ratio” value [1] was “(16.67%)”, the “best response SD (stable disease), number of subjects” value [1] was 2/6 and the “best response SD, ratio” value [1] was “(33.33%)”. The “disease control rate (DCR)” value [1] was “(50.00%)”, the “objective response rate (ORR)” value [1] was “(16.67%)” and the “disease control rate (DCR)” value [2] was 50.00%. For the same molecule, the “objective response rate (ORR)” value [2] was 16.67%, the adverse reaction incidence (human, in vivo) was 67% and the “incidence of adverse reactions above grade 3” value (human, in vivo) was 16%.
